From the supplement of paper PMC9170038

Tested on: MS2 coat protein
Assay: apparent KD of MS2 coat protein, switch OFF state (with FMN for OFF switches, without FMN for ON switches); designed switch direction (-1 OFF switch, 1 ON switch): -1; higher = weaker reporter binding
Settings: FMN input: 0 or 200 uM; Eterna round: R93 (includes R88 designs)
Procedure, shortened: (§1)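 Apparent KD stands for the median, per design, of fits to normalised cluster binding curves. The curves came from titrating on-chip-transcribed RNA switches on Illumina sequencing clusters with SNAP-549-labelled MS2 coat protein, twofold from 0.7 or 1.5 nM to 3 µM. Buffer was 100 mM Tris-HCl pH 7.5, 80 mM KCl, 4 mM MgCl2, without or with constant ligand.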

| Sequence | apparent KD of MS2 coat protein |
| --- | --- |
| AGUAGUACAGGAUAUACAUGAGGAUCACCCAUGUGAAAAUAAAGUGGCGUACCACAAAGUAGAAGGGUACUACA [Mat - Exclusion 3 - JL mod - D35] | 0.138 µM |
| CUCAUGUCAGGAUAUGUAGCAUGAUACGAAAGUAUCAUGCUACAGAAGGGACAUGAGGAUCACCCAUGUCCAAA [Ex4: 944] | 0.0377 µM |
| GAAAAGAAAGGAUAUAAAACAGAGGAUAUACAUAAAUAAAAACAUGAGGAUCACCCAUGUAGAAGGCUGAAAAG [Meechl Ex2 R2 m2] | 0.0205 µM |
| AAAAAGUGAGGAUAUUCGGAUAGGAAAACGAAAACCUAUCCGAAGAAGGCACAUGAGGAUCACCCAUGUGAGAA [67% Ecls-II - Early G + late G segment 4] | 0.0513 µM |
| AAAAAGUGAGGAUAUACAUGAGGAUCACCCAUGUGUAUAAAAAAAUACACAAAAGAAAGUAGAAGGCACUAAAG [Mat - Exclusion 3 - Mayanna mod - D109] | 0.0848 µM |
| AGUCAGAGAGGAUAUACAAGGGAAAAAAAAGUUAGAUCCCUACAUGAGGAUCACCCAUGUAGAAGGCUCUGACA [Ex2 Design 152: Sub-opt 16] | 0.0492 µM |
| AAAAAACAUGAGGAUCACCCAUGUCAGGAUAUCUGUAAAAAUUAAAAAAAUAAAAUACAGAGAAGGGACAUAAA [Ex1: 606] | 0.1 µM |
| GGUUGGCGAGGAUAUACAUGAGGAUCACCCAUGUGAGAGAAAAAAGUGAGAAAGAAAAGUAGAAGGCGCUGACU [salish99-ex3-04] | 0.262 µM |
| AAAACUGGAGGAUAUACAUGAGGAUCACCCAUGUGUGGAUGAGCUGAAACGGCAUCACGUAGAAGGCCACAAAA [Gilly Gone Silly 40 - Jieux - Exclusion 3] | 0.0452 µM |
| AAAACUCGAGGAUAUGCAAAAUGAUUGCGAAAGCAAUCAAAACAUGAGGAUCACCCAUGUAGAAGGCGAGAAAA [Mat - Mod of Eli] | 0.013 µM |
| AACAGGACAGGAUAUACAUGAGGAUCACCCAUGUAGGAAACAAGCAGAGUACCAAAAAGUAGAAGGGUCAUGGA [Ruby 30] | 0.0633 µM |
| AAAAGACAUGAGGAUCACCCAUGUGAGGAUAUGACGUAAAGAAAGAAAGAAGAAAUCGUCAGAAGGCACACCUA [Mat - Exclusion 1 - Eli mod - D68] | 0.0635 µM |
| AAAUUGUCAGGAUAUCGUAUAACAUGGAAAACAUGGAGAUACGAGAAGGGACAUGAGGAUCACCCAUGUAAAAC [May 95] | 0.0874 µM |
| GGGAUGUCAGGAUAUGUGUAAAGAAUAAAACAAAUAACAACACAGAAGGGACAUGAGGAUCACCCAUGUUACCC [May 39] | 0.0154 µM |
| AAGAAACAUGAGGAUCACCCAUGUAAGGAUAUCUAAAAGAAAAGAAAAGAAAGAAGAAGGAGAAGGUACAAAGG [Sehertawy Intef I] | 0.03 µM |
| AAGGUAUGAGGAUAUACAUAGAUACAGACACAUGUUCAAGUACAUGAGGAUCACCCAUGUAGAAGGCAUAUAUA [AJ 14] | 0.033 µM |
| AAAAUGGCAGGAUAUACUAAAAUAAAAAACUAUGCUAAAACACAUGAGGAUCACCCAUGUAGAAGGGCCAAAAA [AJ 5] | 0.0188 µM |

| Sequence | apparent KD of MS2 coat protein |
| --- | --- |
| AAGAAAGCAGGAUAUACAAAAUAAAAGAAAAGAAAGAAAGAACAUGAGGAUCACCCAUGUAGAAGGGCUAAGAA [Khahotepre Sobekhotep VI] | 0.0323 µM |
| AAAAAACAUGAGGAUCACCCAUGUGAGGAUAUCGAAAAGUUAAAGAAAAAGACGAAAAUGAGAAGGCGCAAAAA [Fiskers Exclusion D1] | 0.0239 µM |
| AAAACACAUGAGGAUCACCCAUGUGAGGAUAUGCGAGUGAAAAUAAAAAUAAAACAUAGCAGAAGGCACAAGGA [Amethyst 80] | 0.045 µM |
| AGUUGGCGAGGAUAUACAUGAGGAUCACCCAUGUGAGAGUAAAAAGUGAGAAAGAAAAGUAGAAGGCGCUAACA [JL Lego Mod 19] | 0.352 µM |
| CUCUAGUGAGGAUAUACAAGAAAAGAAGAGAAAGAAAAGAAGUAGAAGGCACAUGAGGAUCACCCAUGUAAGAA [EteRNA is fun!] | 0.0336 µM |
| AAUUCACAUGAGGAUCACCCAUGUAAGGAUAUCGAAAUAAAACUAAUCAAAAAACAAACGAGAAGGUACAAAAA [Exclusion 1 design 7] | 0.0263 µM |
| AAAGGACAUGAGGAUCACCCAUGUGAGGAUAUGCGAAAAAAAAAAAUAAAAAAAAAAAGUAGAAGGCACACCAA [Mat - Exclusion 1 - Eli mod - D57] | 0.128 µM |
| AAAGGGUCAGGAUAUGUACGAACAACAAAACAAAUAACGGUACAGAAGGGACAUGAGGAUCACCCAUGUAUAAA [May 73] | 0.0641 µM |
| GGUUGGCGAGGAUAUACAUGAGGAUCACCCAUGUGAGAGAAAAAAGUGAGAAAGAAAAGUAGAAGGUGUUGACG [salish99-ex3-70] | 0.0567 µM |
| CUCAUGUGAGGAUAUGUACAGAAAAAAAUGGGUGAAACUGUACAGAAGGCACAUGAGGAUCACCCAUGUGCAAA [EX4 377: S S Pseudoknot 2] | 0.0214 µM |
| AAAGGACAUGAGGAUCACCCAUGUGAGGAUAUGACGUAAAUAAAGAAAGAAGAAAUCGUCAGAAGGCACACCUA [55%, Disencluded 2, 2] | 0.0451 µM |
| UUUAAGUGAGGAUAUACGAAUAGUAAGUAAGUAUAACAGACGUAGAAGGCACAUGAGGAUCACCCAUGUAAAUA [JR_Exc004_Sub305] | 0.0186 µM |
| AAAAAUUGAGGAUAUACGUACAUGUCGAAAGACGUGAAGGGACAUGAGGAUCACCCAUGUAGAAGGCGAAAAAA [Mat - Exclusion 2 - JL mod - D73] | 0.0279 µM |
| AUUAAGUGAGGAUAUGAGUGAACAACAAAACAAAUAACGACUCAGAAGGCACAUGAGGAUCACCCAUGUAUAAA [May 69] | 0.0287 µM |
| UCACACCUAGGAUAUACAUGAGGAUCACCCAUGUGGCACUCCGCAGGCAUUGCUCCCAGUAGAAGGAGGACACG [Veterexe] | 0.0238 µM |
| AAAAAUCGAGGAUAUACAUGAGGAUCACCCAUGUGGGAACACGAUUACACAAAAGAAAGUAGAAGGCGAUAAAA [Ex 3 May 22] | 0.162 µM |

Tested on: MS2 coat protein
Assay: apparent KD of MS2 coat protein, switch ON state; designed switch direction (-1 OFF switch, 1 ON switch): 1; higher = weaker reporter binding
Settings: FMN input: 0 or 200 uM; Eterna round: R93 (includes R88 designs)
Procedure, shortened: as §1

| Sequence | apparent KD of MS2 coat protein |
| --- | --- |
| AAAAGACAUGAGGAUCACCCAUGUCCUCGGACAUGAGGAUAUGUACAGACUUCGGUCUGUACAGAAGGCAUAAAAA [SS1 - 1063] | 0.0712 µM |
| AAAAAAAAAAGUGAGGAUAUGGGAAAAUUAACAUGAGGAUCACCCAUGUGAUAAAAAAAAAAAAACCAGAAGGUACAAAAAAAAA [Original 73%, More Wateronthemoon, 1] | 0.016 µM |
| AAUACACAUGAGGAUCACCCAUGUAGAAAGAAGUCAGGAUAUCCGAUCCACAUGUGAUAAGGAGAAGGGACAAUAA [SS 1 Tesla 8] | 0.0196 µM |
| AAAGAAAAACUAGAGGAUAUCCGAAUGGUAACAUGAGGAUCACCCAUGUGAAGAAAGGAACAUGAGGAGAAGGCUAGAAGAAAAA [JL Nando mod 10] | 0.0188 µM |
| AAAAAACAUGAGGAUCACCCAUGUAGAAAUAUGGGAGGAUAUGGAAACACGAAAGUGAAACCAGAAGGCUCAAAAG [77%, Mat - Mod of Eli, 8] | 0.0266 µM |
| AACCAACAUGAGGAUCACCCAUGUCAACCCAAGCGAGGAUAUCCGAGAAUAACAAUGGGAGGAGAAGGCGCGACCU [ss1] | 0.0381 µM |
| AUAAAACAUGAGGAUCACCCAUGUCAAGGCUAUCAAGGAUAUAGGAAGCGUAGCGGUUGACUAGAAGGUGAGAAAU [Ragexequ] | 0.0669 µM |
| AAAAAAAAAAGACAGGAUAUACAAUAUAUUACAUGAGGAUCACCCAUGUUUUUUUUUUAAUUAAAGUAGAAGGGUCAAAAAAAAAA [SS 2.1] | 0.0256 µM |
| AAAAAAUAAAAAAAGGAUAUAAUGCUACAGACAUGAGGAUCACCCAUGUAGGUAGCAAAAAUAAAAAAGAAGGAAAAAUAAAAAA [SS2: MS2 31] | 0.0114 µM |
| AAAAUAAAAUAAAAGGAUAUAAAAUAAAAAACAUGAGGAUCACCCAUGUAAAAACAUGGGAAAAAAAAGAAGGAAAAAUAAAAAA [SS2: 71 No MS2] | 0.603 µM |
